How the values were obtained:
Conditions in all cases: both partners purified
[1] = biological target: T1, biotinylated H1 A/NewCaledonia/20/1999 (NC99) HA ectodomain (Influenza A virus A/New …, UniProt Q6WG00, strain, biotin (site not stated)); experiment: BLI; Octet Red384; […]; Fab at 1600, 400, 100 and 25 nM; PBS + 1% BSA; 180 s association, 300 s dissociation
[2] = biological target: biotinylated H1 A/Michigan/45/2015 (MI15) HA ectodomain (Influenza A virus A/Michigan/45/2015 …, UniProt A0A1J0CXU0, strain, biotin (site not stated)); experiment: as above
[3] = biological target: H1 hemagglutinin (A/New Caledonia/20/1999(H1N1)), recombinant HA trimer used for electron microscopy (influenza A virus A/New …, UniProt Q6WG00); experiment: cryo-EM structure
[4] = biological target: T1, biotinylated H1 A/NewCaledonia/20/1999 …; experiment: […] (MSD) binding assay; […]

Binder | binding result [1] | binding result [2] | binding result [3] | binding result [4]
2-2-1G06 Fab (Fab, V domains shown) VH: QVQLRESGPGLVKPSQTLSLTCTVSGDSISNGGLYWNWIRQRPGRGLEWIGYIYYNGVTTYNPSLRSRIAISLETAKNQLSLRLSSVSAADTAIYYCAREGWVPDYGGRNYYLDFWGQGTLVTVSS VL: DIQMTQSPSSLSASVGDRVTITCRASHNIQNFLNWYQQKPGKAPKLLIYAASTLQSGVPSRFSGSGSRTDFTLTISSLQPEDFAAYYCQQSYGLPRTFGQGTRLEIK | binds | binds | binds | –
2-2-1G06 monoclonal antibody (IgG1) (antibody, V domains shown, IgG1; copies: 2 + 2) VH: QVQLRESGPGLVKPSQTLSLTCTVSGDSISNGGLYWNWIRQRPGRGLEWIGYIYYNGVTTYNPSLRSRIAISLETAKNQLSLRLSSVSAADTAIYYCAREGWVPDYGGRNYYLDFWGQGTLVTVSS VL: DIQMTQSPSSLSASVGDRVTITCRASHNIQNFLNWYQQKPGKAPKLLIYAASTLQSGVPSRFSGSGSRTDFTLTISSLQPEDFAAYYCQQSYGLPRTFGQGTRLEIK | – | – | – | binds
1-1-1F05 Fab (Fab, V domains shown, source: Expi293, transfected, IgG purified (Protein A); Fab by papain digestion, SEC) VH: QVQLQESGPGLVKPSATLSLTCTLSGGSLSTHYWSWIRQPPGKGLEYIGNIHYSGSTNYNPSLRSRVTISVGTSKNQFSLKLTSVTAADTAVYYCARDAPYSDFLSGVETGWFDPWGQGTLVIVSS VL: EIVMTQSPATLSVSPGERATLSCRASQSVSSNLAWYQQKPGQAPRLLIYGASTRATGIPARFSGSGSGTDFTLTISSLQSEDFAVYSCQQYNNWPWTFGQGTKVEIK | – | – | binds | –
1-1-1E04 Fab (Fab, V domains shown, Parent IgG1) VH: QVQLVQSGAQLRKPGSSVTVSCKASGDTFNSYSIHWVRQAPGQGLEWMGRIIPVFGMTHYAQRFRGRITVSADKSTRTAYMELTSLTSADTAMYYCARDGGDKFHSSGHFETNQGYFDHWGQGALVTVSS VL: QSVLTQPPSVSGAPGQRVTVSCTGSSSNLGATYEVHWYQQFPGTAPKLLIYGSTNRPSGVPERFSGSKSGTSASLTITGLQAEDEADYYCQSYDTSLRGFYVFGTGTKVTVL | – | – | binds | –

From publication doi:10.1101/2023.08.23.554525 (bioRxiv, 2023)
